In patent publication US7964700B2, “Inhibitors of Taspase1 protease activity” (Dana-Farber Cancer Institute, Inc., priority 2003, dated 2011):
No end group written: not given here.

Molecular target: T1, rTaspase1 (Homo sapiens, UniProt Q9H6P5)
T1 construct: Full-length Taspase1 was cloned from 293T cell cDNA and inserted into the Myc/Flag doubly-tagged expression vector; made in house; host or cells: E. coli BL21(DE3)
T1 sequence (Q9H6P5 1-233): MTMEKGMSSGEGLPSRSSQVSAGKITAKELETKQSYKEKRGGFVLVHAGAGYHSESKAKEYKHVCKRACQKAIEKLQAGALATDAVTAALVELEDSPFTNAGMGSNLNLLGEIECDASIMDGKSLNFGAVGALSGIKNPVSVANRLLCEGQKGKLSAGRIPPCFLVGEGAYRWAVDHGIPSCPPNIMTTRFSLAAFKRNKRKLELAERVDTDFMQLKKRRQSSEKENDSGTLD
T1 sequence (Q9H6P5 234-420): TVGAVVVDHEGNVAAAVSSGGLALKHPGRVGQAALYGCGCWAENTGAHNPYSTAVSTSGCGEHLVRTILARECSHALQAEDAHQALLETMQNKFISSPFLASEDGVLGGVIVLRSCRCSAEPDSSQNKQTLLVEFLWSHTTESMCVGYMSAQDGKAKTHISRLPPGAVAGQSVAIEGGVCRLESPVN
Assay: In vitro cleavage assay: labeled MLL substrate incubated with rTaspase1 and peptide inhibitor, SDS-PAGE and autoradiography
Type: biochemical
Details: for inhibitory effect on the rTaspase1 enzyme (MLL substrate cleavage) / dose response: effectiveness of polypeptide-aldehyde Taspase1 inhibitors: 5 ng rTaspase1, 20 minutes; for inhibitory effect on the rTaspase1 enzyme (MLL substrate cleavage): then labeled substrate 60 minutes at 37° C.; for dose response: effectiveness of polypeptide-aldehyde Taspase1 inhibitors: concentrations of FIGS. 11A-11C
Protocol: Polypeptides of varying length (i.e., 4 to 7 amino acids in length) were prepared to identify preferred lengths and sequences of polypeptide inhibitors of Taspase1. The polypeptide inhibitors were based on the amino acid sequence that includes a upstream portion of the CS2 cleavage site of MLL as well as a portion of the CS2 cleavage site (See FIG. 1B and FIG. 9). The peptide inhibitors were purchased from Tufts University Peptide Core Facility and AnaSpec Inc. of San Jose, Calif. 1 mM of each of the inhibitors was incubated with 5 ng of rTaspase1 for 20 minutes before adding labeled substrate for another 60 minutes at 37° C. The results were analyzed by SDS-PAGE followed by autoradiography.
In order to determine a preferred length of polypeptide inhibitors of Taspase1, dose responses were tested for a six amino acid polypeptide inhibitor (KISQLA) (SEQ ID NO:8) and a five amino acid polypeptide inhibitor (ISQLA) (SEQ ID NO:7). The polypeptides were incubated at the concentrations depicted in FIG. 10 with 5 ng of rTaspase1 for 20 minutes before adding labeled MLL substrate for another 60 minutes at 37° C. The results were analyzed by SDS-PAGE followed by autoradiography.
Three modified polypeptide inhibitors were prepared wherein the carboxy terminals of the polypeptides were replaced with an aldehyde (SQLA-aldehyde (SEQ ID NO:17), SQLD-aldehyde (SEQ ID NO:9), and KISQLD-aldehyde (SEQ ID NO:11)). Chemical syntheses of these modified polypeptides is well known to one of skill in the art, and the modified polypeptides are also are available commercially at AnaSpec Inc. of San Jose, Calif. The polypeptides were incubated in the concentrations depicted in FIGS. 11A-11C with 5 ng of rTaspase1 for 20 minutes before adding labeled MLL substrate for another 60 minutes at 37° C. The results were analyzed by SDS-PAGE followed by autoradiography. […] Accordingly, the modified polypeptides can keep the active site of the enzyme occupied for a greater length of time, blocking entrance of the MLL substrate from entering the active site as required for cleavage. […] (See FIG. 11C.).
^35S-methionine labeled MLL substrate was incubated with 2 μl of indicated subcellular fractions or specified amounts of rTaspase1 in cleavage buffer (100 mM HEPES [pH 7.9], 5 mM MgCl2, 20 mM KCl, 5 mM DTT, and 10% sucrose) for 1 hour at 37° C. or indicated periods of time. Protease inhibitors utilized include 8.5 μM Phosphoramidon, 100 μM TLCK, 100 μM TPCK, 5 mM Iodoacetamide, 5 mM N-Ethylmaleimide, 0.3 μM Aprotinin, 100 μM Leupeptin, 1 μM Pepstatin, 1× Complete protease inhibitor cocktail (Roche), 100 μM Antipain, 100 μM APMSF, 10 μM Bestatin, 25 μM ALLN, 100 μM Chymostatin, […] E-64, 5 mM EDTA, 1 mM PMSF, 1 mM EGTA, 50 μM BAF (Boc-Aspartyl-FMK), and 50 μM z-VAD (z-VAD-FMK).

[1] = then labeled MLL substrate 60 minutes at 37° C.

inhibitory effect on the rTaspase1 enzyme (MLL substrate cleavage) (1 mM inhibitor, FIG. 9)	Substance	further results
	Ile-Ser-Gln-Leu-Ala (ISQLA; listed as Homo sapiens)	dose response: effectiveness as Taspase1 inhibitor, five versus six amino acid polypeptide (concentrations of FIG. 10, 5 ng rTaspase1, 20 minutes, then labeled MLL substrate 60 minutes at 37° C.): more effective inhibitor at lower concentrations than the corresponding six amino acid polypeptide
little inhibitory effect	Ile-Ser-Gln-Leu-Asp (ISQLD; listed as Homo sapiens)	
inhibitory effect was observed	KISQA: polypeptide with P1 alanine and omission of the leucine residue at P2 (listed as Homo sapiens)	inhibition of rTaspase1 relative to ISQLA (P2 leucine omitted) (1 mM inhibitor, 5 ng rTaspase1, FIG. 9): significantly decreased inhibition
inhibitory effect was observed	KISQLA	
little inhibitory effect	KISQLD: six amino acid polypeptide based on the sequence upstream of the CS2 cleavage site of MLL (listed as Homo sapiens)	
inhibitory effect was observed	KISdQLA: polypeptide where the P1 aspartate residue was substituted for an alanine residue (KISDQLA; not fully specified (residue 4); printed as KISdQLA; listed as Homo sapiens)	
	Lys-Ile-Ser-Gln-Leu-Asp-aldehyde (KISQLD-aldehyde)	dose response: effectiveness of polypeptide-aldehyde Taspase1 inhibitors [1]: more effective than both of the four amino acid aldehyde
little inhibitory effect	SQLD: four amino acid polypeptide based on the sequence upstream of the CS2 cleavage site of MLL (listed as Homo sapiens)	
	Ser-Gln-Leu-Asp-aldehyde (SQLD-aldehyde)	dose response: effectiveness of polypeptide-aldehyde Taspase1 inhibitors [1]: more effective inhibitor than the SQLA-aldehyde
